Biological target: the molecule itself
Assay: crystal structure; crystals at 20°C by vapor diffusion, 0.2 M ammonium sulfate, 0.1 M trisodium citrate pH 5.6, 15% PEG 4000; space group C2221; one tetramer in the asymmetric unit; 2.57 Å

B1: Peptidoglycan deacetylase (HP0310, HpPgdA) from Helicobacter pylori (enzyme)
chain: MAKEILVAYGVDIDAVAGWLGSYGGEDSPDDISRGLFAGEVGIPRLLKLFKKYHLPATWFVPGHSIETFPEQMKMIVDAGHEVGAHGYSHENPIAMSTKQEEDVLLKSVELIKDLTGKAPTGYVAPWWEFSNITNELLLKHGFKYDHSLMHNDFTPYYVRVGDSWSKIDYSLEAKDWMKPLIRGVETNLVEIPANWYLDDLPPMMFIKKSPNSFGFVSPRDIGQMWIDQFDWVYREMDYAVFSMTIHPDVSARPQVLLMHEKIIEHINKHEGVRWVTFNEIADDFLKRNPRKK
notes: HP0310 (HpPgdA), peptidoglycan deacetylase, amplified from genomic H. pylori G27 with primers from the ATG to the stop codon; soluble protein of 293 amino acids; residues 2 to 291 visible in the crystal; Cloned in pET151 in frame with an N-terminal His-tag flanked by a TEV site; the entry of strain 26695 would be another; also called His tagged-Hp0310; H. pylori peptidoglycan deacetylase; source: …
B1 was tested, and the “stoichiometry N” value was 4.

Reference: PMC3084791, “The Structure of Helicobacter pylori HP0310 Reveals an Atypical Peptidoglycan Deacetylase” (PLoS ONE, 2011)
